Experimental data from the Immune Epitope Database (IEDB).

How the values were obtained:
HLA-A*24:03 = assay: IEDB peptide-MHC binding, purified MHC/direct/fluorescence; filed as Kd, often an IC50 or EC50 that approximates it; ≥ and ≤ were set here for values at or beyond the usual limits of such assays; conditions: source organism: Vibrio parahaemolyticus
HLA-A*32:01 = assay: IEDB peptide-MHC binding, purified MHC/competitive/radioactivity; filed as Kd, often an IC50 or EC50 that approximates it; ≥ and ≤ were set here for values at or beyond the usual limits of such assays
HLA-B*44:02 = assay: as above; conditions: source organism: Dengue virus 1 Singapore/S275/1990
HLA-A*30:01 = assay: as above
HLA-A*11:01 = assay: as above; conditions: source organism: Dengue virus 3 Martinique/1243/1999
HLA-A*26:01 = assay: as above
HLA-B*08:01 = assay: as above
HLA-B*51:01 = assay: IEDB peptide-MHC binding, purified MHC/competitive/fluorescence; filed as Kd, often an IC50 or EC50 that approximates it; ≥ and ≤ were set here for values at or beyond the usual limits of such assays
HLA-A*68:02 = assay: IEDB peptide-MHC binding, purified MHC/competitive/radioactivity; filed as Kd, often an IC50 or EC50 that approximates it; ≥ and ≤ were set here for values at or beyond the usual limits of such assays
HLA-A*68:01 = assay: as above; conditions: source organism: Dengue virus 1 Brazil/97-11/1997
HLA-B*35:01 = assay: as above; conditions: source organism: Dengue virus 1 Brazil/97-11/1997
HLA-A*02:02 = assay: as above
HLA-A*02:03 = assay: as above
HLA-A*02:06 = assay: as above
HLA-B*15:01 [1] = assay: IEDB peptide-MHC binding, purified MHC/direct/fluorescence; filed as Kd, often an IC50 or EC50 that approximates it; ≥ and ≤ were set here for values at or beyond the usual limits of such assays; conditions: source organism: Influenza A virus (A/swine/Hong Kong/273/1994(H1N1))
HLA-A*01:01 = assay: as above; conditions: source organism: Influenza A virus (A/swine/Hong Kong/273/1994(H1N1))
HLA-B*07:02 = assay: as above; conditions: source organism: Influenza A virus (A/swine/Hong Kong/273/1994(H1N1))
HLA-A*02:12 = assay: as above; conditions: source organism: Influenza C virus
HLA-B*58:01 = assay: as above; conditions: source organism: Influenza A virus (A/swine/Hong Kong/273/1994(H1N1))
HLA-A*03:01 [2] = assay: as above; conditions: source organism: Influenza A virus (A/swine/Hong Kong/273/1994(H1N1))
HLA-B*27:05 = assay: as above; conditions: source organism: Influenza A virus (A/swine/Hong Kong/273/1994(H1N1))
HLA-B*15:01 [3] = assay: IEDB peptide-MHC binding, purified MHC/competitive/radioactivity; filed as Kd, often an IC50 or EC50 that approximates it; ≥ and ≤ were set here for values at or beyond the usual limits of such assays
HLA-A*03:01 [4] = assay: as above; conditions: source organism: Dengue virus 4 Philippines/H241/1956
HLA-A*02:01 = assay: IEDB peptide-MHC binding, purified MHC/competitive/fluorescence; filed as Kd, often an IC50 or EC50 that approximates it; ≥ and ≤ were set here for values at or beyond the usual limits of such assays; conditions: source organism: Variola virus
[5] = source organism: Dengue virus 1 Brazil/97-11/1997
[6] = source organism: Dengue virus 2 Jamaica/1409/1983
[7] = source organism: Dengue virus 3 Martinique/1243/1999
[8] = source organism: Dengue virus 2 16681-PDK53
[9] = source organism: Vaccinia virus WR
[10] = source organism: Mammarenavirus juninense
[11] = source organism: Dengue virus 4 Philippines/H241/1956

AFYLWIVGF
Kd (HLA-A*24:03): 2100 nM

AGILARWGSF
Kd (HLA-A*32:01; source organism: Dengue virus 1 Singapore/S275/1990): 1140 nM | Kd (HLA-B*44:02): 12.6 µM

AIFMTATPPG
Kd (HLA-A*30:01; [5]): 179 nM

ATMANEMGF
Kd (HLA-A*32:01; [6]): 138 nM

ATQLATLRK
Kd (HLA-A*30:01; [7]): 5.76 nM | Kd (HLA-A*11:01): 67.8 nM

CTILAVVSVS
Kd (HLA-A*30:01; [8]): 9700 nM | Kd (HLA-A*26:01; [8]): ≥ 69700 nM

DIMALIVSI
Kd (HLA-A*32:01; source organism: Vaccinia virus): 114 nM

DLRRRFDTF
Kd (HLA-B*08:01; [9]): 1.58 nM

ENRLHKECL
Kd (HLA-B*08:01; [9]): 73.2 nM

EPNFSIPQI
Kd (HLA-B*51:01; source organism: Mycobacterium tuberculosis variant bovis BCG str. Pasteur 1173P2): 268 nM

ETACLGKAYA
Kd (HLA-A*26:01; [7]): 207 nM | Kd (HLA-A*68:02; [7]): 3.62 nM

FALLKFTYL
Kd (HLA-B*08:01; [9]): 1.59 nM

FNKDIFVSL
Kd (HLA-B*08:01; [9]): 277 nM

FTNMEVQLIR
Kd (HLA-A*68:01): 87.4 nM | Kd (HLA-B*35:01): 14.6 µM

GGALVRNPLS
Kd (HLA-A*30:01; [6]): 5290 nM

GLSQFTQTV
Kd (HLA-A*02:02; [10]): 3.92 nM | Kd (HLA-A*02:03; [10]): 0.699 nM | Kd (HLA-A*02:06; [10]): 721 nM | Kd (HLA-A*68:02; [10]): ≥ 26000 nM

GMFNMLSTV
Kd (HLA-B*15:01 [1]): 105 nM | Kd (HLA-A*01:01): ≥ 20 µM | Kd (HLA-B*07:02): ≥ 20 µM | Kd (HLA-A*02:12): 49 nM | Kd (HLA-B*58:01): ≥ 20 µM | Kd (HLA-A*03:01 [2]): ≥ 20 µM | Kd (HLA-B*27:05): 10.1 µM

GMNSRSTSL
Kd (HLA-B*08:01; [6]): 7.81 nM | Kd (HLA-A*02:03; [6]): 18.2 nM | Kd (HLA-B*15:01 [3]; [6]): 86.6 nM

HASPTLFNA
Kd (HLA-A*30:01; [9]): 66.3 nM

HLIFSYAFL
Kd (HLA-A*30:01; [9]): 213 nM

HMILVVVTTL
Kd (HLA-B*08:01; [11]): 5170 nM | Kd (HLA-B*15:01 [3]; [11]): 408 nM

IFKLTYQNK
Kd (HLA-A*30:01; [6]): 340 nM

IGILLTWLGL
Kd (HLA-A*32:01; [5]): ≥ 38800 nM

ILCYFILIF
Kd (HLA-A*32:01; [9]): 11500 nM

ILKNSQGEEV
Kd (HLA-A*02:06; source organism: Homo sapiens): ≥ 72500 nM | Kd (HLA-A*68:02; source organism: Homo sapiens): 2250 nM

ILKRWGQLK
Kd (HLA-A*30:01; [11]): 318 nM | Kd (HLA-A*03:01 [4]): 3.58 nM

IMGQLTWNDL
Kd (HLA-B*08:01; [5]): 6490 nM

IPNDFKELV
Kd (HLA-B*51:01; source organism: Rickettsia typhi str. Wilmington): 446 nM

KAERVIDPRR
Kd (HLA-A*30:01; [6]): 11400 nM

KARDALDNL
Kd (HLA-A*30:01; [6]): 71.5 nM

KARNALDNL
Kd (HLA-A*30:01; [8]): 19.7 nM

KIDFLFFII
Kd (HLA-A*32:01; source organism: Vaccinia virus Copenhagen): 1.97 nM

KSAHFLLIF
Kd (HLA-A*32:01; [9]): 0.185 nM

KTMMINPFM
Kd (HLA-A*30:01; [9]): 0.362 nM

KVIVRNLNK
Kd (HLA-A*30:01; [9]): 1.44 nM

KVKNVHIGG
Kd (HLA-A*30:01; [9]): 0.338 nM

LALDSYWPV
Kd (HLA-B*51:01; source organism: Yersinia pestis Nepal516): 711 nM

LDILTEIASL
Kd (HLA-B*08:01; [11]): 871 nM

LIDNPDNNL
Kd (HLA-A*02:01): 77.6 nM

LLITHYAII
Kd (HLA-B*08:01; [7]): 371 nM | Kd (HLA-A*02:03; [7]): 18.1 nM

LLNVKMALDI
Kd (HLA-A*02:03; source organism: Homo sapiens): 83.2 nM | Kd (HLA-A*68:02; source organism: Homo sapiens): 1000 nM

LLSGAGEHL
Kd (HLA-A*02:02; source organism: Homo sapiens): 5.73 nM | Kd (HLA-A*02:03; source organism: Homo sapiens): 19.2 nM | Kd (HLA-A*68:02; source organism: Homo sapiens): ≥ 47200 nM
